Literature values as cited in PMC1087504.

Biological target: 3 beta-hydroxysteroid dehydrogenase (Bos taurus) (UniProt P14893)
Sequence of UniProt P14893 (P14893 whole entry): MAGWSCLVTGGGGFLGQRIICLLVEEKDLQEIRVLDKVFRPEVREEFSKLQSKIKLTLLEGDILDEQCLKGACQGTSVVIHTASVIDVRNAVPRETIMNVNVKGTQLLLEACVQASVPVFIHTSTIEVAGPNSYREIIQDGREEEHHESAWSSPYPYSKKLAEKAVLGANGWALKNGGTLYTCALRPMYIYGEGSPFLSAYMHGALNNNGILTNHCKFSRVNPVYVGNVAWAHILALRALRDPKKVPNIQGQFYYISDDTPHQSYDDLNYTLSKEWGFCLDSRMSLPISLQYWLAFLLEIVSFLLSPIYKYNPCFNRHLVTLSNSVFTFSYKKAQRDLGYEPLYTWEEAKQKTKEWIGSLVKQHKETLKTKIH

Kd: 0.12 µM
Substance: P450scc (from UniProt P00189)
